From patent publication US20100233714
Like-named read-outs stand apart in the source and are kept apart here.

Key:
[1] = tested on: IgG, polyclonal mixed human (Homo sapiens); experiment: filter; settings: pH 6, 41 mM Na+
[2] = tested on: IgG3, monoclonal human (Homo sapiens); settings: ultrafiltration, Picogreen; 37.5 mM NaCl, 3.75 mM Na citrate, pH 6.0
[3] = tested on: IgG4, monoclonal human (Homo sapiens); settings: ultrafiltration, Picogreen, 37.5 mM NaCl, 3.75 mM Na citrate, pH 6.0
[4] = tested on: IgA, monoclonal human (Homo sapiens); experiment: filter; settings: pH 6, 41 mM Na+
[5] = tested on: IgG Fab2 fragment (human) (Homo sapiens); experiment: filter; settings: pH 6, 41 mM Na+
[6] = tested on: IgG Fab2 fragment (mouse) (Mus musculus); experiment: filter; settings: pH 6, 41 mM Na+
[7] = tested on: IgG, polyclonal mouse (Mus musculus); experiment: filter; settings: pH 6, 41 mM Na+
[8] = tested on: IgG1, monoclonal human (Homo sapiens); experiment: filter; settings: pH 6, 41 mM Na+
[9] = tested on: IgG2, monoclonal human (Homo sapiens); experiment: filter; settings: pH 6, 41 mM Na+
[10] = tested on: IgM, monoclonal human (Homo sapiens); experiment: filter; settings: pH 6, 41 mM Na+
[11] = tested on: IgG Fc fragment (human) (Homo sapiens), P01857-1; experiment: filter; settings: pH 6, 41 mM Na+
[12] = tested on: IgG3, monoclonal human (Homo sapiens); experiment: filter; settings: pH 6, 41 mM Na+
[13] = hexaethylene glycol (HEG, iSp18) linkers as loops

## GGAAAGGTTTTTGGAAAGGTTTTTCCTTTCC [RAD6]
[1]; pH5 8.50, pH7 6.86, pH8 6.74, Table 2 pH 6 6.84
  Ka: 7.96 log10 M-1

## TTTTCGCGCGTACGCGCGCGAA [RAD15]
[2]
  Ka: 6.22 log10 M-1
[3]
  Ka: 6.13 log10 M-1
[4]
  Ka: 6.23 log10 M-1
[5]
  Ka: 5.33 log10 M-1
[6]
  Ka: 6.21 log10 M-1
[1]; pH5 7.65, pH7 6.33, pH8 6.19
  Ka: 7 log10 M-1
[7]
  Ka: 6.35 log10 M-1
[8]
  Ka: 6.39 log10 M-1
[9]
  Ka: 6.18 log10 M-1
[10]
  Ka: 6.19 log10 M-1

## GAGTGAGTCTCAGTTAGTTTCGATTGATTCT [RAD5]
[1]; pH5 8.75, pH7 7.11, pH8 6.81, Table 2 pH 6 6.82
  Ka: 8.03 log10 M-1

## TGGGCCGGTAACGGGTTACCGTAAGGTCCC [RAD10]
[2]
  Ka: 6.62 log10 M-1
[3]
  Ka: 7 log10 M-1
[4]
  Ka: 6.92 log10 M-1
[5]
  Ka: 6.43 log10 M-1
[6]
  Ka: 6.76 log10 M-1
[11]
  Ka: 5.92 log10 M-1
[1]; pH5 8.41, pH7 6.81, pH8 6.72, Table 2 pH 6 6.31
  Ka: 7.65 log10 M-1
[7]
  Ka: 7.53 log10 M-1
[8]
  Ka: 7.04 log10 M-1
[9]
  Ka: 7.01 log10 M-1
[10]
  Ka: 6.7 log10 M-1

## CCTCTTCHEGCTTCTCCHEGGGAGAAG [RAD1]
[4]; [13]
  Ka: 6.37 log10 M-1
[5]; [13]
  Ka: 5.82 log10 M-1
[6]; [13]
  Ka: 6.38 log10 M-1
[11]; [13]
  Ka: 5.8 log10 M-1
[1]; hexaethylene glycol (HEG, iSp18) linkers as loops, ultrafiltration, pH5 7.45, pH7 6.49, pH8 6.30, Table 2 (0.15 M NaCl, 1 mM MgCl2, pH 6) 7.01
  Ka: 6.51 log10 M-1
[7]; [13]
  Ka: 6.6 log10 M-1
[8]; [13]
  Ka: 6.38 log10 M-1
[9]; [13]
  Ka: 6.51 log10 M-1
[12]; [13]
  Ka: 6.17 log10 M-1
[10]; [13]
  Ka: 6.32 log10 M-1

## CGCGAAAACGCG [RAD22]
[1]; pH5 5.95, pH7 6.04, pH8 5.97
  Ka: 6.25 log10 M-1

## TTTTCGCGTGTGTGCGCGAA [RAD12]
[1]; pH5 7.61, pH7 6.37, pH8 5.74
  Ka: 6.98 log10 M-1

## TGGGCCGGTAACGGATTACCGTAAGGTCCC [RAD11]
[1]; pH5 8.31, pH7 6.85, pH8 6.85, Table 2 pH 6 6.51
  Ka: 7.64 log10 M-1

## CCTCTTCCTTCTCCGGAGAAG [RAD1]
[3]; hexaethylene glycol (iSp18) linkers between the three segments
  Ka: 6.37 log10 M-1

## TTTTCGCGCGTTAACGCGCGAA [RAD16]
[2]
  Ka: 6.31 log10 M-1
[3]
  Ka: 6.54 log10 M-1
[4]
  Ka: 6.46 log10 M-1
[5]
  Ka: 6.23 log10 M-1
[6]
  Ka: 6.11 log10 M-1
[1]; pH5 8.22, pH7 7.25, pH8 6.79
  Ka: 7.8 log10 M-1
[7]
  Ka: 7.07 log10 M-1
[8]
  Ka: 6.87 log10 M-1
[9]
  Ka: 6.11 log10 M-1
[10]
  Ka: 6.26 log10 M-1

## CCTCTTCTTTTTCTTCTC [RAD20]
[3]
  Ka: 7.67 log10 M-1
[4]
  Ka: 7.53 log10 M-1
[5]
  Ka: 6.9 log10 M-1
[6]
  Ka: 7.41 log10 M-1
[11]
  Ka: 5.96 log10 M-1
[1]; pH5 8.11, pH7 7.40, pH8 6.64
  Ka: 7.98 log10 M-1
[7]
  Ka: 8.3 log10 M-1
[8]
  Ka: 7.34 log10 M-1
[9]
  Ka: 7.85 log10 M-1
[12]
  Ka: 6.84 log10 M-1
[10]
  Ka: 7.02 log10 M-1

## TGGTTGGTTTTTGGAAGGATTTTTTCCTTCC [RAD3]
[3]
  Ka: 7.2 log10 M-1
[4]
  Ka: 7.38 log10 M-1
[5]
  Ka: 6.97 log10 M-1
[6]
  Ka: 7.09 log10 M-1
[11]
  Ka: 6.34 log10 M-1
[1]; pH5 8.60, pH7 6.86, pH8 6.76, Table 2 pH 6 6.71
  Ka: 7.79 log10 M-1
[7]
  Ka: 7.69 log10 M-1
[8]
  Ka: 7.45 log10 M-1
[9]
  Ka: 7.36 log10 M-1
[12]
  Ka: 6.69 log10 M-1
[10]
  Ka: 6.71 log10 M-1

## GGTTGGTTTGGTTGG [RAD13]
[1]; pH5 7.55, pH7 6.46, pH8 6.53
  Ka: 6.96 log10 M-1

## CCTTCCTTTGGAAGGTTG [RAD23]
[3]
  Ka: 5.97 log10 M-1
[4]
  Ka: 6.38 log10 M-1
[5]
  Ka: 5.64 log10 M-1
[6]
  Ka: 6.33 log10 M-1
[1]; pH5 7.37, pH7 6.31, pH8 6.21
  Ka: 6.88 log10 M-1
[7]
  Ka: 6.77 log10 M-1
[8]
  Ka: 6.14 log10 M-1
[9]
  Ka: 6.86 log10 M-1
[12]
  Ka: 5.62 log10 M-1
[10]
  Ka: 6.08 log10 M-1

## GAGAGAGTTTTTGAGAGAGTTTTTCTCTCTC [RAD7]
[3]
  Ka: 7.16 log10 M-1
[4]
  Ka: 7.33 log10 M-1
[5]
  Ka: 6.68 log10 M-1
[6]
  Ka: 6.97 log10 M-1
[11]
  Ka: 5.99 log10 M-1
[1]; pH5 8.51, pH7 6.97, pH8 6.79, Table 2 pH 6 6.86
  Ka: 8.04 log10 M-1
[7]
  Ka: 7.69 log10 M-1
[8]
  Ka: 7.3 log10 M-1
[9]
  Ka: 7.25 log10 M-1
[12]
  Ka: 6.74 log10 M-1
[10]
  Ka: 6.89 log10 M-1

## CCTCTTCTTTTTCTTCTCCTTTTTGGAGAAG [RAD2 (triplex 31mer)]
[3]
  Ka: 7.08 log10 M-1
[4]
  Ka: 6.9 log10 M-1
[5]
  Ka: 6.45 log10 M-1
[6]
  Ka: 6.71 log10 M-1
[11]
  Ka: 5.86 log10 M-1
[1]; pH5 8.74, pH7 6.96, pH8 6.57, Table 2 pH 6 6.96
  Ka: 7.61 log10 M-1
[7]
  Ka: 7.49 log10 M-1
[8]
  Ka: 7.04 log10 M-1
[9]
  Ka: 7.06 log10 M-1
[12]
  Ka: 6.64 log10 M-1
[10]
  Ka: 6.73 log10 M-1

## TTTGGTTGGTTTGGTTGG [RAD19]
[1]; inosine (I) at printed positions [inosine (written G): 4,14], pH5 7.82, pH7 6.50, pH8 6.04
  Ka: 7.14 log10 M-1

## TGGAGTCTGCGCGAGTCAGCGCTCAAGATC [RAD8]
[1]; pH5 8.41, pH7 6.86, pH8 6.84, Table 2 pH 6 6.13
  Ka: 7.85 log10 M-1

## CCCTCCCTGGGCTTTTTTTGATTTTTCTTAA [RAD4]
[3]
  Ka: 7.13 log10 M-1
[4]
  Ka: 7.66 log10 M-1
[5]
  Ka: 6.89 log10 M-1
[6]
  Ka: 7.09 log10 M-1
[11]
  Ka: 5.26 log10 M-1
[1]; pH5 8.48, pH7 7.10, pH8 7.02, Table 2 pH 6 6.89
  Ka: 8.13 log10 M-1
[7]
  Ka: 7.71 log10 M-1
[8]
  Ka: 7.52 log10 M-1
[9]
  Ka: 7.67 log10 M-1
[12]
  Ka: 6.66 log10 M-1
[10]
  Ka: 6.89 log10 M-1

## CTCTCTCTTTTTCTCTCTCTTTTTGAGAGAG [RAD9]
[2]
  Ka: 6.62 log10 M-1
[3]
  Ka: 7.06 log10 M-1
[4]
  Ka: 6.95 log10 M-1
[5]
  Ka: 6.44 log10 M-1
[6]
  Ka: 6.75 log10 M-1
[11]
  Ka: 5.87 log10 M-1
[1]; pH5 8.67, pH7 7.04, pH8 6.94, Table 2 pH 6 7.02
  Ka: 7.74 log10 M-1
[7]
  Ka: 7.46 log10 M-1
[8]
  Ka: 7.05 log10 M-1
[9]
  Ka: 7.05 log10 M-1
[10]
  Ka: 6.79 log10 M-1
